The values below come from patent US20240247080A1, “GLP1/GIP/NPY2 RECEPTOR TRIPLE AGONISTS” (Boehringer Ingelheim International GmbH, priority 2022, published 2024).

Holding throughout (experiment): cell-based or functional assay
One test concerns the target human GLP-1 receptor (human, UniProt P43220 24-463).
The target of the next test is T1, human GIP receptor (human, UniProt P48546 22-466).
T1 sequence (looked up): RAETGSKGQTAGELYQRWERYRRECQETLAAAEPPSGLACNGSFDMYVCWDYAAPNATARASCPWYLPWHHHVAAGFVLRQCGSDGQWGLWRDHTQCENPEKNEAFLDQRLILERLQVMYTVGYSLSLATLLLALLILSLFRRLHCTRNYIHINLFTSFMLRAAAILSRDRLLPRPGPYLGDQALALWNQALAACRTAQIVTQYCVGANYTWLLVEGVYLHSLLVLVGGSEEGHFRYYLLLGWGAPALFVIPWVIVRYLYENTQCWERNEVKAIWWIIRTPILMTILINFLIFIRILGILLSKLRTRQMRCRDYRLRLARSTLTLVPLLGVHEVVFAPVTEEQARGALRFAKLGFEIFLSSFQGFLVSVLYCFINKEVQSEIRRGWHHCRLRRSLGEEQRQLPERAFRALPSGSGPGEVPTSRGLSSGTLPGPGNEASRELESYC

Test [1] has as its target T2, human neuropeptide Y2 receptor (human, UniProt P49146 1-381).
T2 sequence (looked up): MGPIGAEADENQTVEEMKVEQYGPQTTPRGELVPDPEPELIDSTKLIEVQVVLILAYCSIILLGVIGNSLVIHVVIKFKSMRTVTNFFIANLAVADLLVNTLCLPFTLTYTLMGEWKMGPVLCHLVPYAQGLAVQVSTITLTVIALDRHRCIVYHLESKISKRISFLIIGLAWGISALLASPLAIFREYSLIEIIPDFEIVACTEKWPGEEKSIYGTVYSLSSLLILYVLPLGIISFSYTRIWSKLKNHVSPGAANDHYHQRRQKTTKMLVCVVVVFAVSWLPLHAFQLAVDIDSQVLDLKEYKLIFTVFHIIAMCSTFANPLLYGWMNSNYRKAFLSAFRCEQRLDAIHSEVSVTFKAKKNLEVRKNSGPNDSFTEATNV

A further test concerns the target GLP-1 receptor (human (printed as hGLP1R), UniProt P43220 24-463).
A further test addresses T3, GIP receptor (human (printed as hGIPR), UniProt P48546 22-466).
T3 sequence (looked up): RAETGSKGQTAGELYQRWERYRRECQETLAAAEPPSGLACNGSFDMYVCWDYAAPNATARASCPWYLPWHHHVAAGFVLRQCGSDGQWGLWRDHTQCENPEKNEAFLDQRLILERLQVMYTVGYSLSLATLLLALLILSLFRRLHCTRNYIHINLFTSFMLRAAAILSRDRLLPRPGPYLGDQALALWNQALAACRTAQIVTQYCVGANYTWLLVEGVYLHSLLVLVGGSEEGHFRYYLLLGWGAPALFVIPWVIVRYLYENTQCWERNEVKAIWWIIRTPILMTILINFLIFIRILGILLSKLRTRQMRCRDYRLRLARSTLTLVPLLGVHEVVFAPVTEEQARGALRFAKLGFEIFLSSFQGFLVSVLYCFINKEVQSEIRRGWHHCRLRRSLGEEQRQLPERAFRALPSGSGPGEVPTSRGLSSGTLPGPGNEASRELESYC

In a further test the target is T4, NPY2 receptor (human (printed as hNPY2R), UniProt P49146 1-381).
T4 sequence (looked up): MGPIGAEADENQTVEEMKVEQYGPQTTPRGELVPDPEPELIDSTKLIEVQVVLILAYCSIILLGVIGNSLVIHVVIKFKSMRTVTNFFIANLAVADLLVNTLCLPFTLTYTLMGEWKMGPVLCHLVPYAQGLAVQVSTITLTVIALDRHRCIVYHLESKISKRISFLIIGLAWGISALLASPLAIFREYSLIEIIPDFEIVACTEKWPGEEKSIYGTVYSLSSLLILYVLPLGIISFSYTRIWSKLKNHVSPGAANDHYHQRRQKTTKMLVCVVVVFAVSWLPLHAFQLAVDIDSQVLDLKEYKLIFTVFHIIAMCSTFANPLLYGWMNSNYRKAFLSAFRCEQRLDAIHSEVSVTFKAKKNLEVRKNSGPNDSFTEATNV

Starred links: 1 amine or outer side, 2 acyl side, 3 side chain; linkers in the order of their positions; H or OH if unused. Non-standard residues stand in square brackets, D forms with d. Groups on a side chain read outwards from the residue. No end group written: not given here. *: point of attachment. C20 diacid = O=C(O)CCCCCCCCCCCCCCCCCCC(=O)*; C18 diacid = O=C(O)CCCCCCCCCCCCCCCCC(=O)*; γGlu = O=C(O)[C@H](CCC(=O)[*:2])N[*:1]; AEEA = NCCOCCOCC(=O)O; Aib = CC(C)(N)C(=O)O

B1: Compound 165 (peptide)
peptide: Y[Aib]EGTFTSDYSI[Aib]LEKQAQ[Aib]AFVQWLIK([AEEA-AEEA-γGlu-γGlu-Glu-γGlu-C20 diacid])GGPSEPASLRHYYNWLTRQRY-NH2
For the molecule B1, in the test with human GLP-1 receptor, the “EC50 CreLuc hGLP1R 0.5% hP” value worked out at 0.13 nM and the “EC50 CreLuc hGLP1R 100% hP” value worked out at 4.81 nM. Further, in the test with human GIP receptor, the “EC50 CreLuc hGIPR 0.5% hP” value was determined as 0.33 nM and the “EC50 CreLuc hGIPR 100% hP” value was 1.88 nM. For the same molecule, in test [1], the “EC50 CreLuc hNPY2R 0.5% hP” value worked out at 8.91 nM and the “EC50 CreLuc hNPY2R 100% hP” value amounted to 36 nM.

B2: Compound 175 (peptide)
peptide: Y[Aib]EGTFTSDYSI[Aib]LEKQAQ[Aib]AFVEWLIK([AEEA-AEEA-γGlu-γGlu-γGlu-γGlu-C20 diacid])GGPSSPASLRHYYNWLTRQRY-NH2
modifications: also: TFA salt
For the molecule B2, in the test with GLP-1 receptor, the “EC50 hGLP1R 0.5% hP (CreLuc)” value worked out at 0.1 nM and the “EC50 hGLP1R 100% hP (CreLuc)” value worked out at 5.3 nM. Besides, in the test with GIP receptor, the “EC50 hGIPR 0.5% hP (CreLuc)” value stood at 0.29 nM and the “EC50 hGIPR 100% hP (CreLuc)” value came to 1.53 nM. Moreover, in the test with NPY2 receptor, the “EC50 hNPY2R 0.5% hP (CreLuc)” value worked out at 10.5 nM and the “EC50 hNPY2R 100% hP (CreLuc)” value was 48.7 nM.

B3: Compound 177 (peptide)
peptide: Y[Aib]EGTFTSDYSI[Aib]LEKQAQ[Aib]AFVQWLIK([AEEA-AEEA-Glu-Glu-Glu-Glu-C18 diacid])GGPEEGASLRHYYNWLTRQRY-NH2
modifications: also: TFA salt
As to B3, in the test with GLP-1 receptor, the “EC50 hGLP1R 0.5% hP (CreLuc)” value came to 0.16 nM and the “EC50 hGLP1R 100% hP (CreLuc)” value was 12.5 nM. In addition, in the test with GIP receptor, the “EC50 hGIPR 0.5% hP (CreLuc)” value worked out at 0.28 nM and the “EC50 hGIPR 100% hP (CreLuc)” value was determined as 2.83 nM. Moreover, in the test with NPY2 receptor, the “EC50 hNPY2R 0.5% hP (CreLuc)” value was determined as 18.7 nM and the “EC50 hNPY2R 100% hP (CreLuc)” value turned out to be 115 nM.

B4: Compound 178 (peptide)
peptide: Y[Aib]EGTFTSDYSI[Aib]LEKQAQ[Aib]AFVEWLIKGGPSSPASLRHYYNWLTRQRY-NH2
modifications: not fully specified (residue 28); also: TFA salt
Regarding B4, in the test with GLP-1 receptor, the “EC50 hGLP1R 0.5% hP (CreLuc)” value came to 0.08 nM and the “EC50 hGLP1R 100% hP (CreLuc)” value came to 5.51 nM. Moreover, in the test with GIP receptor, the “EC50 hGIPR 0.5% hP (CreLuc)” value was determined as 0.12 nM and the “EC50 hGIPR 100% hP (CreLuc)” value was 5.86 nM. Also, in the test with NPY2 receptor, the “EC50 hNPY2R 0.5% hP (CreLuc)” value stood at 13.3 nM and the “EC50 hNPY2R 100% hP (CreLuc)” value amounted to 115 nM.

B5: Compound 166 (peptide)
peptide: Y[Aib]EGTFTSDYSI[Aib]LEKQAQ[Aib]AFVEWLIK([AEEA-AEEA-γGlu-γGlu-γGlu-C18 diacid])GGPESGASLRHYYNWLTRQRY-NH2
As to B5, in the test with human GLP-1 receptor, the “EC50 CreLuc hGLP1R 0.5% hP” value stood at 0.07 nM and the “EC50 CreLuc hGLP1R 100% hP” value was determined as 4.24 nM. In addition, in the test with human GIP receptor, the “EC50 CreLuc hGIPR 0.5% hP” value amounted to 0.08 nM and the “EC50 CreLuc hGIPR 100% hP” value was 0.64 nM. Further, in test [1], the “EC50 CreLuc hNPY2R 0.5% hP” value was determined as 12.5 nM and the “EC50 CreLuc hNPY2R 100% hP” value stood at 57.9 nM.

B6: Compound 173 (peptide)
peptide: Y[Aib]EGTFTSDYSI[Aib]LEKQAQ[Aib]AFVQWLIK([AEEA-AEEA-γGlu-γGlu-γGlu-γGlu-C18 diacid])GGPSEPASLRHYYNWLTRQRY-NH2
modifications: also: TFA salt
As to B6, in the test with GLP-1 receptor, the “EC50 hGLP1R 0.5% hP (CreLuc)” value is 0.11 nM and the “EC50 hGLP1R 100% hP (CreLuc)” value was found to be 3.07 nM. In the test with GIP receptor, the “EC50 hGIPR 0.5% hP (CreLuc)” value was 0.27 nM and the “EC50 hGIPR 100% hP (CreLuc)” value came out at 0.94 nM. In the test with NPY2 receptor, the “EC50 hNPY2R 0.5% hP (CreLuc)” value was determined as 12.4 nM and the “EC50 hNPY2R 100% hP (CreLuc)” value was found to be 24.9 nM.

B7: Compound 161 (peptide)
peptide: Y[Aib]EGTFTSDYSI[Aib]LEKQAQ[Aib]AFVEWLIK([AEEA-AEEA-γGlu-γGlu-γGlu-γGlu-C18 diacid])GGPEEPASLRHYYNWLTRQRY-NH2
On to B7, for which, in the test with human GLP-1 receptor, the “EC50 CreLuc hGLP1R 0.5% hP” value came out at 0.21 nM and the “EC50 CreLuc hGLP1R 100% hP” value is 8.06 nM. In the test with human GIP receptor, the “EC50 CreLuc hGIPR 0.5% hP” value was determined as 0.14 nM and the “EC50 CreLuc hGIPR 100% hP” value worked out at 1.23 nM. In test [1], the “EC50 CreLuc hNPY2R 0.5% hP” value stood at 11.5 nM and the “EC50 CreLuc hNPY2R 100% hP” value was found to be 41.7 nM.

B8: Compound 164 (peptide)
peptide: Y[Aib]EGTFTSDYSI[Aib]LEKQAQ[Aib]EFVQWLIKGGPSEGASLRHYYNWLTRQRY-NH2
modifications: not fully specified (residue 28)
Consider B8, for which, in the test with human GLP-1 receptor, the “EC50 CreLuc hGLP1R 0.5% hP” value was 0.28 nM and the “EC50 CreLuc hGLP1R 100% hP” value was 6.48 nM. In the test with human GIP receptor, the “EC50 CreLuc hGIPR 0.5% hP” value stood at 0.25 nM and the “EC50 CreLuc hGIPR 100% hP” value stood at 1.26 nM. In test [1], the “EC50 CreLuc hNPY2R 0.5% hP” value was 24 nM and the “EC50 CreLuc hNPY2R 100% hP” value came to 50.1 nM.
